Assay [1] addresses T1, rat calcitonin receptor (rat, UniProt P32214 25-516).
T1 construct: whole, on cells; Membranes of transiently transfected BHK tk'ts 13 cells (Assay VIII); also called rCTR
T1 sequence (looked up): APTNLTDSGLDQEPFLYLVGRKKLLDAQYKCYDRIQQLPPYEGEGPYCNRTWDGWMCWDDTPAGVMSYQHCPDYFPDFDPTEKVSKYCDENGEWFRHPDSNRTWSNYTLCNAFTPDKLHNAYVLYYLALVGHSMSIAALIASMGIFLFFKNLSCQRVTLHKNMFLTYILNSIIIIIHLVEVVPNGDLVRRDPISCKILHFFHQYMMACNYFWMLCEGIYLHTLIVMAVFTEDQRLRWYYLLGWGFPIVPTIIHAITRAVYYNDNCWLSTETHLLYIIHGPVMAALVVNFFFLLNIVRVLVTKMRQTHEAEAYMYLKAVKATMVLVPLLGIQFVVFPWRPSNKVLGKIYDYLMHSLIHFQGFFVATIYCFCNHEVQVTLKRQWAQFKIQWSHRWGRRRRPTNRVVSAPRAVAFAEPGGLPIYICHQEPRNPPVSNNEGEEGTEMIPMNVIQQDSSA
Nature of the assay: ratio IC50 rat calcitonin receptor / IC50 rat amylin receptor (reference).

The target in assay [2] is T2, human calcitonin receptor (human, UniProt P30988 25-474).
T2 construct: whole, on cells; Membranes of a stably transfected BHK cell line (Assay VII); also called hCTR; hCT
T2 sequence (looked up): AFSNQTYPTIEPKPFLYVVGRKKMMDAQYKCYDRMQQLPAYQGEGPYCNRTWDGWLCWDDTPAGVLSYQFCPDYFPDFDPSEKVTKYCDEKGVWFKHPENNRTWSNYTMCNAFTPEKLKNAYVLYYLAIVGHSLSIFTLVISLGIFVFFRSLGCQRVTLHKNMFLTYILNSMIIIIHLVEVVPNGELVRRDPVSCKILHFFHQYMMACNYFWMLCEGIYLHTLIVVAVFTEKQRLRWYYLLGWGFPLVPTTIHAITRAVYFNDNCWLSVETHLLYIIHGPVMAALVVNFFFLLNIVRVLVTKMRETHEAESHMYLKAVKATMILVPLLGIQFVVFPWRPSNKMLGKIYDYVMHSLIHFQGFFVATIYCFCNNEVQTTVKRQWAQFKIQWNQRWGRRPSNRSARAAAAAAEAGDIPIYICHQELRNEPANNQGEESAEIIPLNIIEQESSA
Nature of the assay: ratio IC50 human calcitonin receptor / IC50 human amylin receptor (reference). In outline:
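IC₅₀ values were derived by one-site competition analysis of SPA counts. Cell membranes (35 ng/μL) with SPA beads were incubated with test compounds for 120 min at 25° C in Hepes buffer, pH 7.4, containing CaCl2, MgCl₂, OA and Tween20.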

In assay [3] the target is T1, rat calcitonin receptor. As to the kind of experiment: SPA competition with 125I-calcitonin, membranes of BHK cells with rat calcitonin receptor (Assay VIII).
Assay [4] deals with T3, rat amylin receptor (rat calcitonin receptor + rat RAMP 3) (rat, UniProt P32214 25-516; Q9JJ73 23-147).
T3 construct: whole, on cells; Membranes of transiently transfected BHK tk'ts 13 cells (Assay VI); also called rAmylin-R; rat amylin 3(a) receptor
T3 sequence (looked up) 1: T1 sequence (looked up)
T3 sequence (looked up) 2: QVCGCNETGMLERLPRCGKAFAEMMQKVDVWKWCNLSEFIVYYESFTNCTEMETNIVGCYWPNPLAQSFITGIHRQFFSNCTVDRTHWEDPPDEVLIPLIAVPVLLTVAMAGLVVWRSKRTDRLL
As to the kind of experiment: SPA competition with 125I-rat amylin, membranes of BHK cells with rat calcitonin receptor + rat RAMP3 (Assay VI).

We go through 5 molecules from patent US20140087995A1 (published 2014).

Numbered stars: 1 amine (or outer) side, 2 acyl side, 3 side chain; on linkers, the order of the positions; unused ones are H or OH. Bridge positions count the residues as written; N and C are the ends. Side chains are listed from the residue outwards. Ends that are not written are not given here. * marks the point of attachment. C20 diacid = O=C(O)CCCCCCCCCCCCCCCCCCC(=O)*; γGlu = O=C(O)[C@H](CCC(=O)[*:2])N[*:1]

B1: N^ε1-[(4S)-4-carboxy-4-[[(4S)-4-carboxy-4-(19-carboxynonadecanoylamino)butanoyl]amino]butanoyl]-[Glu14,Arg17,Pro21,Pro27,His34,Glu35]-h-amylin (peptide)
peptide: K([γGlu-γGlu-C20 diacid])CNTATCATQRLAEFLRHSSPNFGAIPSSTNVGHETY-NH2
modifications: disulfide 2-7; N-terminus assumed
SMILES: CC[C@H](C)[C@H](NC(=O)[C@H](C)NC(=O)CNC(=O)[C@H](Cc1ccccc1)NC(=O)[C@H](CC(N)=O)NC(=O)[C@@H]1CCCN1C(=O)[C@H](CO)NC(=O)[C@H](CO)NC(=O)[C@H](Cc1c[nH]cn1)NC(=O)[C@H](CCCNC(=N)N)NC(=O)[C@H](CC(C)C)NC(=O)[C@H](Cc1ccccc1)NC(=O)[C@H](CCC(=O)O)NC(=O)[C@H](C)NC(=O)[C@H](CC(C)C)NC(=O)[C@H](CCCNC(=N)N)NC(=O)[C@H](CCC(N)=O)NC(=O)[C@@H](NC(=O)[C@H](C)NC(=O)[C@@H]1CSSC[C@H](NC(=O)[C@@H](N)CCCCNC(=O)CC[C@H](NC(=O)CC[C@H](NC(=O)CCCCCCCCCCCCCCCCCCC(=O)O)C(=O)O)C(=O)O)C(=O)N[C@@H](CC(N)=O)C(=O)N[C@@H]([C@@H](C)O)C(=O)N[C@@H](C)C(=O)N[C@@H]([C@@H](C)O)C(=O)N1)[C@@H](C)O)C(=O)N1CCC[C@H]1C(=O)N[C@@H](CO)C(=O)N[C@@H](CO)C(=O)N[C@H](C(=O)N[C@@H](CC(N)=O)C(=O)N[C@H](C(=O)NCC(=O)N[C@@H](Cc1c[nH]cn1)C(=O)N[C@@H](CCC(=O)O)C(=O)N[C@H](C(=O)N[C@@H](Cc1ccc(O)cc1)C(N)=O)[C@@H](C)O)C(C)C)[C@@H](C)O
B1: the “Ratio rCT/rAmylin binding” value in the assay with rat calcitonin receptor [1] worked out at 159. Also, the “Ratio hCT/hAmylin binding” value in assay [2] stood at 29.1. Further, the IC50 – broadly, the concentration that inhibits the measured activity by half – with rat calcitonin receptor [3] is 498 nM; in assay [4] it was 3.14 nM.

B2: N^ε1-[(4S)-4-carboxy-4-[[(4S)-4-carboxy-4-(19-carboxynonadecanoylamino)butanoyl]amino]butanoyl]-[Glu14,Arg17,Pro21,Pro27,Pro34,Glu35]-h-amylin (peptide)
peptide: K([γGlu-γGlu-C20 diacid])CNTATCATQRLAEFLRHSSPNFGAIPSSTNVGPETY-NH2
modifications: disulfide 2-7; N-terminus assumed
SMILES: CC[C@H](C)[C@H](NC(=O)[C@H](C)NC(=O)CNC(=O)[C@H](Cc1ccccc1)NC(=O)[C@H](CC(N)=O)NC(=O)[C@@H]1CCCN1C(=O)[C@H](CO)NC(=O)[C@H](CO)NC(=O)[C@H](Cc1c[nH]cn1)NC(=O)[C@H](CCCNC(=N)N)NC(=O)[C@H](CC(C)C)NC(=O)[C@H](Cc1ccccc1)NC(=O)[C@H](CCC(=O)O)NC(=O)[C@H](C)NC(=O)[C@H](CC(C)C)NC(=O)[C@H](CCCNC(=N)N)NC(=O)[C@H](CCC(N)=O)NC(=O)[C@@H](NC(=O)[C@H](C)NC(=O)[C@@H]1CSSC[C@H](NC(=O)[C@@H](N)CCCCNC(=O)CC[C@H](NC(=O)CC[C@H](NC(=O)CCCCCCCCCCCCCCCCCCC(=O)O)C(=O)O)C(=O)O)C(=O)N[C@@H](CC(N)=O)C(=O)N[C@@H]([C@@H](C)O)C(=O)N[C@@H](C)C(=O)N[C@@H]([C@@H](C)O)C(=O)N1)[C@@H](C)O)C(=O)N1CCC[C@H]1C(=O)N[C@@H](CO)C(=O)N[C@@H](CO)C(=O)N[C@H](C(=O)N[C@@H](CC(N)=O)C(=O)N[C@H](C(=O)NCC(=O)N1CCC[C@H]1C(=O)N[C@@H](CCC(=O)O)C(=O)N[C@H](C(=O)N[C@@H](Cc1ccc(O)cc1)C(N)=O)[C@@H](C)O)C(C)C)[C@@H](C)O
Take B2: the “Ratio rCT/rAmylin binding” value with rat calcitonin receptor [1] is 88.5. In assay [2], the “Ratio hCT/hAmylin binding” value came to 17.6. Also, the results for the 50% inhibitory concentration (IC50) (in the assay with rat calcitonin receptor [3]; in assay [4]) were 16.1 nM and 0.182 nM, respectively.

B3: N^ε1-[(4S)-4-carboxy-4-[[(4S)-4-carboxy-4-(19-carboxynonadecanoylamino)butanoyl]amino]butanoyl]-[His14,Arg17,Pro21,Pro27]-h-amylin (peptide)
peptide: K([γGlu-γGlu-C20 diacid])CNTATCATQRLAHFLRHSSPNFGAIPSSTNVGSNTY-NH2
modifications: disulfide 2-7; N-terminus assumed
SMILES: CC[C@H](C)[C@H](NC(=O)[C@H](C)NC(=O)CNC(=O)[C@H](Cc1ccccc1)NC(=O)[C@H](CC(N)=O)NC(=O)[C@@H]1CCCN1C(=O)[C@H](CO)NC(=O)[C@H](CO)NC(=O)[C@H](Cc1c[nH]cn1)NC(=O)[C@H](CCCNC(=N)N)NC(=O)[C@H](CC(C)C)NC(=O)[C@H](Cc1ccccc1)NC(=O)[C@H](Cc1c[nH]cn1)NC(=O)[C@H](C)NC(=O)[C@H](CC(C)C)NC(=O)[C@H](CCCNC(=N)N)NC(=O)[C@H](CCC(N)=O)NC(=O)[C@@H](NC(=O)[C@H](C)NC(=O)[C@@H]1CSSC[C@H](NC(=O)[C@@H](N)CCCCNC(=O)CC[C@H](NC(=O)CC[C@H](NC(=O)CCCCCCCCCCCCCCCCCCC(=O)O)C(=O)O)C(=O)O)C(=O)N[C@@H](CC(N)=O)C(=O)N[C@@H]([C@@H](C)O)C(=O)N[C@@H](C)C(=O)N[C@@H]([C@@H](C)O)C(=O)N1)[C@@H](C)O)C(=O)N1CCC[C@H]1C(=O)N[C@@H](CO)C(=O)N[C@@H](CO)C(=O)N[C@H](C(=O)N[C@@H](CC(N)=O)C(=O)N[C@H](C(=O)NCC(=O)N[C@@H](CO)C(=O)N[C@@H](CC(N)=O)C(=O)N[C@H](C(=O)N[C@@H](Cc1ccc(O)cc1)C(N)=O)[C@@H](C)O)C(C)C)[C@@H](C)O
notes: also called compound 92
In the case of B3, the “Ratio rCT/rAmylin binding” value with rat calcitonin receptor [1] was found to be 156. Also, in assay [2], the “Ratio hCT/hAmylin binding” value was found to be 145. Also, the IC50 is 104 nM in the assay with rat calcitonin receptor [3] and 0.668 nM in assay [4].

B4: N^ε1-[(4S)-4-carboxy-4-[[(4S)-4-carboxy-4-(19-carboxynonadecanoylamino)butanoyl]amino]butanoyl]-[Glu14,Arg17,Pro21,Pro27,Pro34,Arg35]-h-amylin (peptide)
peptide: K([γGlu-γGlu-C20 diacid])CNTATCATQRLAEFLRHSSPNFGAIPSSTNVGPRTY-NH2
modifications: disulfide 2-7; N-terminus assumed
SMILES: CC[C@H](C)[C@H](NC(=O)[C@H](C)NC(=O)CNC(=O)[C@H](Cc1ccccc1)NC(=O)[C@H](CC(N)=O)NC(=O)[C@@H]1CCCN1C(=O)[C@H](CO)NC(=O)[C@H](CO)NC(=O)[C@H](Cc1c[nH]cn1)NC(=O)[C@H](CCCNC(=N)N)NC(=O)[C@H](CC(C)C)NC(=O)[C@H](Cc1ccccc1)NC(=O)[C@H](CCC(=O)O)NC(=O)[C@H](C)NC(=O)[C@H](CC(C)C)NC(=O)[C@H](CCCNC(=N)N)NC(=O)[C@H](CCC(N)=O)NC(=O)[C@@H](NC(=O)[C@H](C)NC(=O)[C@@H]1CSSC[C@H](NC(=O)[C@@H](N)CCCCNC(=O)CC[C@H](NC(=O)CC[C@H](NC(=O)CCCCCCCCCCCCCCCCCCC(=O)O)C(=O)O)C(=O)O)C(=O)N[C@@H](CC(N)=O)C(=O)N[C@@H]([C@@H](C)O)C(=O)N[C@@H](C)C(=O)N[C@@H]([C@@H](C)O)C(=O)N1)[C@@H](C)O)C(=O)N1CCC[C@H]1C(=O)N[C@@H](CO)C(=O)N[C@@H](CO)C(=O)N[C@H](C(=O)N[C@@H](CC(N)=O)C(=O)N[C@H](C(=O)NCC(=O)N1CCC[C@H]1C(=O)N[C@@H](CCCNC(=N)N)C(=O)N[C@H](C(=O)N[C@@H](Cc1ccc(O)cc1)C(N)=O)[C@@H](C)O)C(C)C)[C@@H](C)O
notes: also called compound 110
For B4, the “Ratio rCT/rAmylin binding” value with rat calcitonin receptor [1] is 113. Also, the “Ratio hCT/hAmylin binding” value in assay [2] is 53.6. For the same molecule, the figures for the IC50 (with rat calcitonin receptor [3]; in assay [4]) were 38.3 nM and 0.339 nM, respectively.

Regarding K([γGlu-γGlu-C20 diacid])CNTATCATQRLAEFLRHSSPNFGAILSSTPVGPETY-NH2 (disulfide 2-7 (inferred)), the “Ratio rCT/rAmylin binding” value with rat calcitonin receptor [1] is 74.7. Besides, the “Ratio hCT/hAmylin binding” value in assay [2] turned out to be 22.6. Besides, the IC50 with rat calcitonin receptor [3] came to 33.5 nM; in assay [4], 0.449 nM.
